# Source: article PMC9482650, “Quantitative fragmentomics allow affinity mapping of interactomes” (Nature Communications, 2022)
# Target: Q8IUC4
# Experiment: holdup assay
# Conditions: plain residues with an end cap or a label only (N-terminal biotin on a linker: (peg)3)
binder,measurement,value
"QQSMSSADSTQA [SARS-Cov2-N, P0DTC9]",pKd,below the threshold
